Measurements from patent publication US20160194355A1 (MARUHA NICHIRO, published 2016).

Biological target: dipeptidyl peptidase-IV (DPPIV) (Human, recombinant; manufactured by Biomol) (Human, UniProt P27487 39-766, limits assumed)
Assay: cell-based or functional assay

Sequence of dipeptidyl peptidase-IV (DPPIV) (Human, recombinant; manufactured by Biomol) (P27487 39-766 limits assumed): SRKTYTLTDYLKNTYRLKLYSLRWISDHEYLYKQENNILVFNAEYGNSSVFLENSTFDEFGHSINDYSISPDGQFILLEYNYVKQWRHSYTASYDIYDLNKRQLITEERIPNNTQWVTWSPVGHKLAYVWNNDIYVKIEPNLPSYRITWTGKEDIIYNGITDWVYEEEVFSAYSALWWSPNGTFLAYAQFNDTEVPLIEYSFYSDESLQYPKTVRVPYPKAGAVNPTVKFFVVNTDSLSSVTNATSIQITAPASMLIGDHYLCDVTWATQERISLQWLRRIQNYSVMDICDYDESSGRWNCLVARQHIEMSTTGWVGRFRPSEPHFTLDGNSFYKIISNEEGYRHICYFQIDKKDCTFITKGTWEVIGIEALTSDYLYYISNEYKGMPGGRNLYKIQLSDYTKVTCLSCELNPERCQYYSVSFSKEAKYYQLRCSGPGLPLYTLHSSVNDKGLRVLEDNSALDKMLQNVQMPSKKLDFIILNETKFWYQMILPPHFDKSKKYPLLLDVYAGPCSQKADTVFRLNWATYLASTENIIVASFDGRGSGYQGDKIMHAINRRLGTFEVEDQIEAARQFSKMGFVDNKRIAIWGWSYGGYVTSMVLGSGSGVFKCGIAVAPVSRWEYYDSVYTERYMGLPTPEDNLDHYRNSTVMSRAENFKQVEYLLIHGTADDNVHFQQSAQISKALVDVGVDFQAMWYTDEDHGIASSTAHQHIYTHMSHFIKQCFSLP

IC50 Value (µM), DPPIV inhibitory activity (enzyme activity on H-Gly-Pro-AMC substrate, fluorescence) [µM] | Binder
46 | LPVL [Leu-Pro-Val-Leu (LPVL)]
82 | LPL [Leu-Pro-Leu (LPL)]
> 100 | VIP [Val-Ile-Pro (VIP)]
> 100 | WIP [Trp-Ile-Pro (WIP)]
> 100 | IIP [Ile-Ile-Pro (IIP)]
19 | VPL [Val-Pro-Leu (VPL)]
> 100 | LP [Leu-Pro (LP)]
88 | LPF [Leu-Pro-Phe (LPF)]
66 | IP [Ile-Pro (IP)]
26 | IPL [Ile-Pro-Leu (IPL)]
> 100 | VLP [Val-Leu-Pro (VLP)]
> 100 | WLP [Trp-Leu-Pro (WLP)]
3 | IPI [Ile-Pro-Ile (IPI)]
3 | VPI [Val-Pro-Ile (VPI)]
> 100 | IVP [Ile-Val-Pro (IVP)]
> 100 | FP [Phe-Pro (FP)]
40 | FPVG [Phe-Pro-Val-Gly (FPVG)]
